From patent US11833164B2, “Methods of treating Fabry disease in patients having a mutation in the GLA gene” (Amicus Therapeutics, Inc., priority 2019, dated 2023)
Residue numbers refer to the chain shown, from its start. In names and notes the source's numbering stands.

B1: D153N (protein)
chain: MQLRNPELHLGCALALRFLALVSWDIPGARALDNGLARTPTMGWLHWERFMCNLDCQEEPDSCISEKLFMEMAELMVSEGWKDAGYEYLCIDDCWMAPQRDSEGRLQADPQRFPHGIRQLANYVHSKGLKLGIYADVGNKTCAGFPGSFGYYNIDAQTFADWGVDLLKFDGCYCDSLENLADGYKHMSLALNRTGRSIVYSCEWPLYMWPFQKPNYTEIRQYCNHWRNFADIDDSWKSIKSILDWTSFNQERIVDVAGPGGWNDPDMLVIGNFGLSWNQQVTQMALWAIMAAPLFMSNDLRHISPQAKALLQDKDVIAINQDPLGKQGYQLRQGDNFEVWERPLSGLAWAVAMINRQEIGGPRSYTIAVASLGKGVACNPACFITQLLPVKRKLGFYEWTSRLRSHINPTGTVLLQLENTMQMSLKDLL
B2: T158N (protein)
chain: B1 chain with N153D, T158N
B3: A156G (protein)
chain: B1 chain with N153D, A156G
B4: Q157K (protein)
chain: B1 chain with N153D, Q157K
B5: D153V (protein)
chain: B1 chain with N153V
B6: F159Y (protein)
chain: B1 chain with N153D, F159Y
B7: F159I (protein)
chain: B1 chain with N153D, F159I
B8: A160G (protein)
chain: B1 chain with N153D, A160G
B9: Q157E (protein)
chain: B1 chain with N153D, Q157E
B10: D161H (protein)
chain: B1 chain with N153D, D161H
B11: A160V (protein)
chain: B1 chain with N153D, A160V
B12: F159L (protein)
chain: B1 chain with N153D, F159L
B13: D153Y (protein)
chain: B1 chain with N153Y
B14: A160T (protein)
chain: B1 chain with N153D, A160T
B15: T158S (protein)
chain: B1 chain with N153D, T158S
B16: T158I (protein)
chain: B1 chain with N153D, T158I
B17: Q157P (protein)
chain: B1 chain with N153D, Q157P
B18: A160S (protein)
chain: B1 chain with N153D, A160S
B19: F159V (protein)
chain: B1 chain with N153D, F159V
B20: T158A (protein)
chain: B1 chain with N153D, T158A
B21: Q157L (protein)
chain: B1 chain with N153D, Q157L

System: mutant form of α-Gal A expressed in HEK-293 cells
Test: HEK assay (GLP HEK / Migalastat Amenability Assay): α-Gal A activity in lysates of transiently transfected HEK-293 cells incubated with or without 10 μM migalastat
Assay type: cell-based, human
Details: for Absolute increase (% WT): 10 μM migalastat versus baseline; for Relative increase: 10 μM migalastat α-Gal A activity relative to baseline; for 10 μM migalastat α-Gal A activity (% WT): 5 days; for 10 μM migalastat α-Gal A activity (% WT) / Baseline α-Gal A activity (% WT): percentage of baseline wild-type α-Gal A activity; for 10 μM migalastat α-Gal A activity (% WT) / Baseline α-Gal A activity (% WT) / Baseline α-Gal A activity / 10 μM migalastat α-Gal A activity: mean ± SEM; for Baseline α-Gal A activity (% WT): absence of migalastat; for Baseline α-Gal A activity / 10 μM migalastat α-Gal A activity: lysates of HEK-293 cells transfected with the mutant form; for Baseline α-Gal A activity: incubated 5 days in the absence of migalastat; for 10 μM migalastat α-Gal A activity: incubated 5 days with 10 μM migalastat
How it was run: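 Activity reported as 4-MU released (nmol/mg/hr), mean±SEM, from lysates of transiently transfected HEK-293 cells expressing mutant α-Gal A, cultured with or without 10 μM migalastat.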

Molecule | Absolute increase (% WT) | Relative increase | 10 μM migalastat α-Gal A activity (% WT) | Baseline α-Gal A activity (% WT) | Baseline α-Gal A activity [nmol/mg/h] | 10 μM migalastat α-Gal A activity [nmol/mg/h]
B1 | 24.1 | 1.3 | 89.7 ± 4.4 | 65.6 ± 2.8 | 29386 ± 1518 | 39338 ± 1551
B2 | 12.8 | 3.1 | 18.2 ± 2 | 5.4 ± 0.2 | 1906 ± 106 | 5991 ± 499
B3 | 16.9 | 1.4 | 63.6 ± 4.3 | 46.7 ± 2.7 | 17406 ± 1187 | 23415 ± 1710
B4 | 55.6 | 3.2 | 79.7 ± 5 | 24.1 ± 1.8 | 9815 ± 1083 | 31331 ± 2428
B5 | 25.0 | 2.2 | 42.4 ± 1.6 | 17.4 ± 2 | 7357 ± 1139 | 16301 ± 766
B6 | 22.4 | 3.9 | 30.1 ± 1.7 | 7.7 ± 0.7 | 2573 ± 301 | 10052 ± 825
B7 | 24.6 | 1.4 | 89.3 ± 4.2 | 64.7 ± 3.5 | 21543 ± 1754 | 29402 ± 1960
B8 | 19.0 | 1.4 | 54.1 ± 5.3 | 35.1 ± 3.7 | 13634 ± 2705 | 19647 ± 3137
B9 | 24.1 | 1.3 | 101.5 ± 6.1 | 77.4 ± 4.1 | 28269 ± 1306 | 37204 ± 2126
B10 | 15.5 | 1.2 | 77 ± 3.8 | 61.5 ± 2.9 | 21949 ± 2587 | 26457 ± 2512
B11 | 21.9 | 1.4 | 66 ± 4.8 | 44.1 ± 2.7 | 15511 ± 1847 | 22124 ± 1885
B12 | 28.0 | 1.4 | 103.6 ± 10.7 | 75.6 ± 8.4 | 22840 ± 1245 | 31357 ± 1408
B13 | 23.3 | 1.8 | 52.4 ± 2.8 | 29.1 ± 3.1 | 12609 ± 1299 | 22535 ± 1174
B14 | 31.3 | 1.4 | 90.9 ± 8.1 | 59.6 ± 3.5 | 20193 ± 1713 | 29082 ± 1980
B15 | 19.8 | 1.3 | 99.1 ± 5.6 | 79.3 ± 4 | 31043 ± 2073 | 39060 ± 2937
B16 | 18.8 | 1.4 | 67.8 ± 3.4 | 49 ± 2.7 | 17360 ± 1159 | 24097 ± 1695
B17 | 40.6 | 5.4 | 49.6 ± 3.4 | 9 ± 1 | 3887 ± 487 | 20888 ± 1527
B18 | 29.9 | 1.5 | 85.9 ± 6.3 | 56 ± 3.1 | 18308 ± 685 | 27775 ± 1478
B19 | 29.8 | 1.6 | 80.7 ± 4.8 | 50.9 ± 2.9 | 16474 ± 1048 | 26241 ± 1907
B20 | 28.7 | 1.7 | 67.3 ± 3.1 | 38.6 ± 2.5 | 14835 ± 1107 | 25678 ± 1673
B21 | 60.2 | 5.1 | 74.4 ± 4.3 | 14.3 ± 1.5 | 5734 ± 700 | 28942 ± 2013
